Experimental findings from article PMC11840927, “Frataxin Traps Low Abundance Quaternary Structure to Stimulate Human Fe–S Cluster Biosynthesis” (Biochemistry, 2025) are described below.

Assay [1] addresses SDAec complex with the Q64S, P299H, L300Q NFS1 triple variant (human | Escherichia coli) (UniProt Q9Y697).
The target of assay [2] is T1, NFS1(Δ1–55) with N-terminal His6 tag (human, UniProt Q9Y697 56-457, covalently attached PLP).
T1 construct: NFS1, human cysteine desulfurase, Δ1–55 (residues 56 to the C-terminus); The NFS1 chain of m1; also called α subunit; source: recombinant, co-purified within the SDAec complex; not shown: His6, N-terminal, kept
The assay is described as follows: native MS; protomer exchange: 1:1 mix of 15N- and 14N-labelled SDAec (or His-tagged and untagged IscS), room temperature, 200 mM ammonium acetate pH 8.5, EMR Orbitrap; ratio of exchanged dimer to the sum of unexchanged dimers; α2β2γ2 (or IscS dimer) to protomers and back. To be noted: both partners purified.

“FXN (Δ1–81) (from UniProt Q16595 82-210) (natural protein)”: in assay [1], the FXN-stimulated cysteine desulfurase activity (μM S^2–/min·μM NFS1) was determined as 8.

B1: Escherichia coli acyl-carrier protein (natural protein)
chain: MSTIEERVKKIIGEQLGVKQEEVTNNASFVEDLGADSLDTVELVMALEEEFDTEIPDEEAEKITTVQAAIDYINGHQA
modifications: acyl-4′PPT (assumed mass 523 Da)
notes: Escherichia coli acyl-carrier protein (ACPec) associated with NFS1-ISD11; The ACP chain of m1; also called ACPec; ACP; source: co-purified within the SDAec complex
B1: in assay [2], the binding result is “binds”.
